# Earlier results in PMC6474356.
# Where two headings read alike, the source gives them in different places.
# How the values were obtained:
# [1] = target: calmodulin (Homo sapiens) (UniProt P0DP23)
# [2] = target: calmodulin (Homo sapiens) (UniProt P0DP23); remark: listed apart in the source
Kd [1] [µM],Kd [2] [µM],Substance
0.017,,eEF-2K (from UniProt O00418)
,0.245,eEF-2K CBD peptide CBD (from UniProt O00418)
